# Laboratory results reported in the supplement of paper PMC11908140.
# B1: library; numbered along this chain (parent)
# chain: MRKPRAAVGSGHRKQAASQEGRQKHAKNNSQAKPSACDGLARQPEEVVLQASVSSYHLFRDVAEVTAFRGSLLSWYDQEKRDLPWRRRAEDEMDLDRRAYAVWVSEVMLQQTQVATVINYYTGWMQKWPTLQDLASASLEEVNQLWAGLGYYSRGRRLQEGARKVVEELGGHMPRTAETLQQLLPGVGRYTAGAIASIAFGQATGVVDGNVARVLCRVRAIGADPSSTLVSQQLWGLAQQLVDPARPGDFNQAAMELGATVCTPQRPLCSQCPVESLCRARQRVEQEQLLASGSLSGSPDVEECAPNTGQCHLCLPPSEPWDQTLGVVNFPRKASRKPPREESSATCVLEQPGALGAQILLVQRPNSGLLAGLWEFPSVTWEPSEQLQRKALLQELQRWAGPLPATHLRHLGEVVHTFSHIKLTYQVYGLALEGQTPVTTVPPGARWLTQEEFHTAAVSTAMKKVFRVYQGQQPGTCMGSKRSQVSSPCSRKKPRMGQQVLDNFFRSHISTDAHSLNSAAQ
# Variants of: B1
# Test: 8OG:A repair function score (normalized; synonymous = 0, nonsense = -1) (normalized log-likelihood score); higher = more repair activity (WT-like)
# Conditions: with 8OG:A DNA repair reporter (GFP) in HEK-293 MUTYH KO cells
# Procedure, shortened: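 Per-tile Rosace fitness scores were converted to a normalized repair function score anchored on synonymous and nonsense distributions. That scale puts synonymous medians at 0 and nonsense medians at -1. Variants with starting counts under 300 counts per million were discarded. Input came from sorting viable mCherry+ MUTYH knockout HEK-293 cells, carrying lentiviral MUTYH cDNA NNN codon-scan libraries in 10 pg/ml doxycycline and an 8OG:A GFP repair reporter, into GFP+ and GFP− bins at 72 h, three replicates per tile, followed by tile amplicon sequencing.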
# 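Also: cells sorted at 72 h after reporter transfection.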
row,Variant,8OG:A repair function score
1,V438D,0.0779
2,Q110R,-0.82
3,L325V,-0.142
4,L448Q,-0.202
5,T424L,-0.165
6,T424C,-0.0623
7,T424R,-0.0759
8,D322A,-0.0859
9,D322Y,-0.0375
10,D77R,-0.122
11,D77W,-0.0696
12,Y152L,-0.707
13,Y152R,-0.956
14,T380D,0.0495
15,A371P,-0.216
16,A371Y,-0.46
17,A371S,-0.172
18,A371W,-0.408
19,R60H,-0.196
20,S378A,-0.104
21,Q473Y,-0.023
22,V218K,-1
23,V218R,-1.03
24,S105D,-0.841

row,Variant,8OG:A repair function score
1,E287L,-0.0229
2,E287K,-0.0128
3,A405W,-0.606
4,R467I,-0.0576
5,T406S,-0.184
6,T406P,-0.287
7,F453V,-0.184
8,G205K,-0.961
9,Q288Y,-0.0255
10,Q288M,-0.03
11,R279M,-0.178
12,G148C,-0.72
13,C311T,-0.566
14,C311F,-0.55
15,A115Y,-0.206
16,I221V,-0.347
17,A280I,-0.189
18,A280G,-0.137
19,G479K,0.00166
20,G479C,-0.0498
21,G434K,0.22
22,V348W,-1.28
23,S227A,-0.0215
24,S227K,0.0372

row,Variant,8OG:A repair function score
1,K464P,-0.968
2,S138F,-0.378
3,S138P,-0.0208
4,H514S,-0.0171
5,H514T,-0.02
6,H172W,-0.21
7,E256S,-0.507
8,P365K,0.177
9,P365W,-0.0852
10,V500L,0.00153
11,V500M,0.0185
12,V206W,-1.03
13,V284L,-0.0493
14,L72A,-0.207
15,L295K,-0.0388
16,L295D,-0.0433
17,L145A,0.0661
18,L145R,-0.0437
19,A137E,-0.16
20,V62G,0.0052
21,F466V,-0.443
22,W146M,-0.182
23,W146T,-0.294
24,P383R,0.0404

row,Variant,8OG:A repair function score
1,P320F,-0.0659
2,S335V,-0.0166
3,S335W,-0.0943
4,T346R,-0.56
5,S384R,-0.115
6,S384P,-0.218
7,S384D,0.201
8,H508L,-0.0429
9,Y151P,-1.25
10,A305W,-0.0242
11,A305H,-0.0126
12,A445D,-1.09
13,L73V,-0.108
14,L73W,-0.824
15,V458M,-0.204
16,V458C,-0.27
17,L40P,0.00594
18,D133N,0.0132
19,L158G,-1.15
20,L158V,-0.372
21,L430D,-0.393
22,V166A,-0.1
23,R88C,-0.0122
24,Q450P,-0.118

row,Variant,8OG:A repair function score
1,H57Q,-0.657
2,A223P,-0.418
3,V117M,-0.226
4,V117R,-1.16
5,S270R,-0.00848
6,L370I,-0.377
7,L373F,0.16
8,P225I,0.0375
9,S55V,0.00566
10,D91K,0.00215
11,D91I,0.00656
12,G258H,-1.65
13,V48Y,-0.141
14,V48I,0.0882
15,T66D,0.00573
16,W399V,-0.167
17,E413F,0.0141
18,E413T,0.369
19,E178W,-0.0455
20,E178A,0.0541
21,Q265F,-0.022
22,E160L,-0.0898
23,E160W,0.0263
24,H416E,-0.909

row,Variant,8OG:A repair function score
1,W75F,-0.21
2,E452M,-0.205
3,A400L,-0.241
4,Q484T,0.0125
5,Q484L,0.00769
6,Q484N,0.0201
7,A456R,-0.498
8,W447H,-0.881
9,Q397P,-0.645
10,D512L,-0.0115
11,V107N,-0.735
12,V107W,-0.894
13,L369T,0.0329
14,N517I,-0.00121
15,G171I,-0.703
16,D208S,-0.987
17,K493E,0.0199
18,K493W,0.00262
19,Q435H,0.148
20,D300H,-0.0192
21,P264I,-0.1
22,L387I,0.125
23,L387Y,-0.136
24,V414R,-0.625

row,Variant,8OG:A repair function score
1,V414C,0.129
2,V414W,-0.504
3,M108D,-0.793
4,P494K,-0.0663
5,R340T,-0.0938
6,D224I,-0.934
7,N503L,0.00339
8,N503K,-0.0135
9,N503A,0.0125
10,Y100V,-1.41
11,L234A,-0.833
12,P377F,-1.17
13,V165Q,-0.882
14,L313S,-0.292
15,L313K,-0.581
16,G368S,-0.236
17,Q240V,-0.936
18,R69L,-1.24
19,A212I,-0.333
20,A212N,-0.24
21,L149I,-0.462
22,G39H,-0.44
23,R491D,0.0052
